Source: PMC3772951 (PLoS ONE, 2013)

Assays:
[1] = target: T1, A subunit of Enterococcus hirae V-ATPase, wild type (Enterococcus hirae, UniProt Q08636 1-593); assay: native gel or EMSA; purified A3B3 and DF complexes mixed in a 1:5 molar ratio, 1 h on ice; formation of A3B3DF (V1) confirmed by basic native-PAGE; details: both partners purified
T1 construct: A subunit of Enterococcus hirae V-ATPase; synthetic gene with E. coli codon usage in pET23d; also called A monomer; source: E. coli BL21 (DE3), purified
T1 sequence (looked up): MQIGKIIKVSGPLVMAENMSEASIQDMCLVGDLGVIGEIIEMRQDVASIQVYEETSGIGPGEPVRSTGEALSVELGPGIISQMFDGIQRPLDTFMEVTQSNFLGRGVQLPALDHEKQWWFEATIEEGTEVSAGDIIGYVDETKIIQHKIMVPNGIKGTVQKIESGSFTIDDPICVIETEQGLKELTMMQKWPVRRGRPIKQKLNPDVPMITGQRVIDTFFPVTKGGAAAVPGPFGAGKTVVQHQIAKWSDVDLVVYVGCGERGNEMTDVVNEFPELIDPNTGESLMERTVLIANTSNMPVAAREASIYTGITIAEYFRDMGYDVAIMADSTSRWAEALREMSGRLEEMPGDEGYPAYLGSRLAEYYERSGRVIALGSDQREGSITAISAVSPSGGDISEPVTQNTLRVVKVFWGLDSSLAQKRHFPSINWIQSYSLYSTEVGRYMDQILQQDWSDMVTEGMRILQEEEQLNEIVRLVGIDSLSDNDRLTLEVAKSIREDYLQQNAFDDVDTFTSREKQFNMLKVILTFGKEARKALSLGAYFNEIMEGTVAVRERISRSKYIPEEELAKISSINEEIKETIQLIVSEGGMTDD

[2] = target: T2, B subunit of Enterococcus hirae V-ATPase, wild type (Enterococcus hirae, UniProt Q08637 1-458); assay: as above; details: both partners purified
T2 construct: B subunit of Enterococcus hirae V-ATPase; synthetic gene with E. coli codon usage in pET23d; also called B monomer; source: E. coli BL21 (DE3), purified
T2 sequence (looked up): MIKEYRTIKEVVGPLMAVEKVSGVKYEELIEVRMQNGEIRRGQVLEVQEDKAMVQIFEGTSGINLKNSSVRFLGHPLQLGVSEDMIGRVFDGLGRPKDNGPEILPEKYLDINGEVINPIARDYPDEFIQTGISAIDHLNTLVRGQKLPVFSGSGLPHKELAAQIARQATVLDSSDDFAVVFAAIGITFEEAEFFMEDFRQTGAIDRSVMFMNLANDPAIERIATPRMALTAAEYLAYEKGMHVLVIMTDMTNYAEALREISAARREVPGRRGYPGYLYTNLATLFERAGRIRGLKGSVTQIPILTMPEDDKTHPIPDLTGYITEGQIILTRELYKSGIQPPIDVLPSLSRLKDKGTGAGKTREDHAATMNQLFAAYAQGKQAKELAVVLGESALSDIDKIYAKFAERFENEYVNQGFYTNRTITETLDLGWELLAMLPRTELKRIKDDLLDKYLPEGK

B1: D subunit of Enterococcus hirae V-ATPase, wild type (natural protein, UniProt P43435 1-210, looked up)
chain: MRLNVNPTRMELTRLKKQLTTATRGHKLLKDKQDELMRQFILLIRKNNELRQAIEKETQTAMKDFVLAKSTVEEAFIDELLALPAENVSISVVEKNIMSVKVPLMNFQYDETLNETPLEYGYLHSNAELDRSIDGFTQLLPKLLKLAEVEKTCQLMAEEIEKTRRRVNALEYMTIPQLEETIYYIKMKLEENERAEVTRLIKVKNMGTEE
notes: D subunit of Enterococcus hirae V-ATPase; Was never handled alone; stands here for the pairs of subunits inside the DF and A3B3DF complexes; source: E. coli cell-free protein expression system, synthesized together with F, purified
- binding result [1]: binds
- binding result [2]: binds
